Consider seven molecules from article PMC8411744, “Engineering a Highly Efficient Carboligase for Synthetic One-Carbon Metabolism” (ACS Catalysis, 2021).

By Km is commonly meant the substrate concentration at which the rate is half of its maximum. The term kcat/Km denotes the second-order rate constant that governs catalysis at low substrate concentration.

The target in data set [1] is T1, MeOXC (OXC, oxalyl-CoA decarboxylase) (Methylorubrum extorquens, UniProt C5AX46).
T1 construct: gene MexAM1_META1p0990; recombinant, produced in E. coli; purified; homotetramer; ThDP and Mg2+ dependent
Briefly: X-ray crystal structure, […] Å. The following applies: Mg2+; C-terminal 16 residues modelled. The data set is classed as binding.

Data set [2] has as its target T2, MeOXC (OXC, oxalyl-CoA decarboxylase) (Methylorubrum extorquens, UniProt C5AX46, E135G/A415C/Y497F/S568G).
T2 construct: gene MexAM1_META1p0990; recombinant, produced in E. coli; purified; homotetramer; ThDP and Mg2+ dependent
The experiment in a line: X-ray crystal structure, […] Å. The data set is classed as binding. As to conditions: MeOXC4; Mg2+; C-terminus beyond E567 modelled. From the text: Substitution E135G gave rise to a cavity in the ThDP binding pocket

Substrate in data set [3]: CC(C)(COP(=O)(O)OP(=O)(O)OC[C@H]1O[C@@H](n2cnc3c(N)ncnc32)[C@H](O)[C@@H]1OP(=O)(O)O)[C@@H](O)C(=O)NCCC(=O)NCCSC(=O)C(=O)O
The experiment in a line: oxalyl-CoA decarboxylation kinetics. The data set is classed as biochemical, Methylorubrum extorquens. As to conditions: MeOXC4.

Substrate in data set [4]: C=O
Briefly: steady-state kinetics, glycolyl-CoA synthase (carboligation) activity. As to conditions: co-substrate formyl-CoA, apparent. The data set is classed as biochemical, Methylorubrum extorquens. From the text: (§1) steady-state kinetics, glycolyl-CoA synthase (carboligation) activity on MeOXC (OXC, oxalyl-CoA decarboxylase)

Substrate in data set [5]: CC(C)(COP(=O)(O)OP(=O)(O)OC[C@H]1O[C@@H](n2cnc3c(N)ncnc32)[C@H](O)[C@@H]1OP(=O)(O)O)[C@@H](O)C(=O)NCCC(=O)NCCSC=O
Described as above. The following applies: co-substrate formaldehyde, apparent. Type of data set: biochemical, Methylorubrum extorquens.
Source text: as §1

Substrate in data set [6]: CC(C)(COP(=O)(O)OP(=O)(O)OC[C@H]1O[C@@H](n2cnc3c(N)ncnc32)[C@H](O)[C@@H]1OP(=O)(O)O)[C@@H](O)C(=O)NCCC(=O)NCCSC(=O)CO
Briefly: CoA transfer from glycolyl-CoA to formate, Michaelis-Menten. The data set is classed as biochemical, Clostridium aminobutyricum. The following applies: formate 25 mM as acceptor. The text has this: CoA transfer from glycolyl-CoA to formate, Michaelis-Menten on AbfT (4-hydroxybutyrate CoA-transferase) | AbfT).

Consider `Cc1ncc(C[n+]2csc(CCOP(=O)(O)OP(=O)(O)O)c2C)c(N)n1` [ThDP], for which, in data set [1], the “X-ray crystal structure, 1.9 Å” value is “The overall structure of MeOXC with bound ThDP (orange)”. The “X-ray crystal structure, 2.4 Å” value in data set [2] is given as “Active site of MeOXC4. Substitution E135G gave rise to a cavity in the ThDP binding pocket”.

B1: MeOXC (OXC, oxalyl-CoA decarboxylase) (Methylorubrum extorquens AM1; A415C/E135G/S568G/Y497F) (protein)
chain: MTVQAQNIDAITAGAMPHEEPELTDGFHLVIDALKLNGIETIYNVPGIPITDLGRLAQAEGLRVISFRHEQNAGNAAAIAGFLTKKPGICLTVSAPGFLNGLTALANATTNCFPMILISGSSEREIVDLQQGDYGEMDQLAIAKPLCKAAFRVLHAADIGIGVARAIRAAVSGRPGGVYLDLPAKLFSQVIDADLGARSLVKVIDAAPAQLPAPAAIARALDVLKSAERPLIILGKGAAYAQADEAVRALVEESGIPYVPMSMAKGLLPDTHPLSAGAARSTALKDSDVVLLVGARLNWLLSHGKGKTWGEPGSKRFIQIDIEPREMDSNVEIVAPVVGDIGSCVEALLDGIRKDWKGAPSNWLETLRGKREANIAKMAPKLMKNSSPMCFHSALGALRTVIKERPDAILVNEGCNTLDLARGIIDMYQPRKRLDVGTWGVMGIGMGFAVAAAVETGKPVLAVEGDSAFGFSGMEVETICRYELPVCIVIFNNNGIFRGTDTDPTGRDPGTTVFVKNSRYDKMMEAFGGVGVNVTTPDELKRAVDEAMNSGKPTLINAEIDPAAGSEGGNIGSLNPQSTLKKK
notes: recombinant, produced in E. coli; purified; homotetramer; ThDP and Mg2+ dependent
Turning to B1, in data set [3], the Km amounted to 122 ± 16 µM and the kcat is listed as 0.21 ± 0.01 s^–1. Besides, in data set [4] (MeOXC4), the Km is 5 ± 1 mM, the kcat turned out to be 2 ± 0.2 s⁻¹ and the kcat/Km stood at 400 M⁻¹ s⁻¹. In addition, in data set [5] (MeOXC4), the Km was determined as 0.22 ± 0.03 mM, the kcat was 2.4 ± 0.2 s⁻¹ and the kcat/Km is 11000 M⁻¹ s⁻¹.

B2: MeOXC (OXC, oxalyl-CoA decarboxylase) (Methylorubrum extorquens AM1) (protein)
chain: MTVQAQNIDAITAGAMPHEEPELTDGFHLVIDALKLNGIETIYNVPGIPITDLGRLAQAEGLRVISFRHEQNAGNAAAIAGFLTKKPGICLTVSAPGFLNGLTALANATTNCFPMILISGSSEREIVDLQQGDYEEMDQLAIAKPLCKAAFRVLHAADIGIGVARAIRAAVSGRPGGVYLDLPAKLFSQVIDADLGARSLVKVIDAAPAQLPAPAAIARALDVLKSAERPLIILGKGAAYAQADEAVRALVEESGIPYVPMSMAKGLLPDTHPLSAGAARSTALKDSDVVLLVGARLNWLLSHGKGKTWGEPGSKRFIQIDIEPREMDSNVEIVAPVVGDIGSCVEALLDGIRKDWKGAPSNWLETLRGKREANIAKMAPKLMKNSSPMCFHSALGALRTVIKERPDAILVNEGANTLDLARGIIDMYQPRKRLDVGTWGVMGIGMGFAVAAAVETGKPVLAVEGDSAFGFSGMEVETICRYELPVCIVIFNNNGIYRGTDTDPTGRDPGTTVFVKNSRYDKMMEAFGGVGVNVTTPDELKRAVDEAMNSGKPTLINAEIDPAAGSESGNIGSLNPQSTLKKK
notes: as for B1
For the molecule B2, in data set [4] (concentrations in Table S4), the Km stood at 100 ± 20 mM, the kcat was 0.2 ± 0.01 s⁻¹ and the kcat/Km turned out to be 2 M⁻¹ s⁻¹. Besides, in data set [5] (concentrations in Table S4), the Km is recorded as 3 ± 2 mM, the kcat was 0.31 ± 0.08 s⁻¹ and the kcat/Km came out at 100 M⁻¹ s⁻¹.

B3: MeOXC (OXC, oxalyl-CoA decarboxylase) (Methylorubrum extorquens AM1; A415C) (protein)
chain: MTVQAQNIDAITAGAMPHEEPELTDGFHLVIDALKLNGIETIYNVPGIPITDLGRLAQAEGLRVISFRHEQNAGNAAAIAGFLTKKPGICLTVSAPGFLNGLTALANATTNCFPMILISGSSEREIVDLQQGDYEEMDQLAIAKPLCKAAFRVLHAADIGIGVARAIRAAVSGRPGGVYLDLPAKLFSQVIDADLGARSLVKVIDAAPAQLPAPAAIARALDVLKSAERPLIILGKGAAYAQADEAVRALVEESGIPYVPMSMAKGLLPDTHPLSAGAARSTALKDSDVVLLVGARLNWLLSHGKGKTWGEPGSKRFIQIDIEPREMDSNVEIVAPVVGDIGSCVEALLDGIRKDWKGAPSNWLETLRGKREANIAKMAPKLMKNSSPMCFHSALGALRTVIKERPDAILVNEGCNTLDLARGIIDMYQPRKRLDVGTWGVMGIGMGFAVAAAVETGKPVLAVEGDSAFGFSGMEVETICRYELPVCIVIFNNNGIYRGTDTDPTGRDPGTTVFVKNSRYDKMMEAFGGVGVNVTTPDELKRAVDEAMNSGKPTLINAEIDPAAGSESGNIGSLNPQSTLKKK
notes: as for B1
On to B3, for which, in data set [4] (MeOXC1), the Km is on record as 30 ± 2 mM, the kcat came to 0.34 ± 0.01 s⁻¹ and the kcat/Km was 10 M⁻¹ s⁻¹. In data set [5] (MeOXC1), the Km was 0.16 ± 0.05 mM, the kcat worked out at 0.23 ± 0.01 s⁻¹ and the kcat/Km turned out to be 1400 M⁻¹ s⁻¹.

B4: MeOXC (OXC, oxalyl-CoA decarboxylase) (Methylorubrum extorquens AM1; A415C/E135G/S568G) (protein)
chain: MTVQAQNIDAITAGAMPHEEPELTDGFHLVIDALKLNGIETIYNVPGIPITDLGRLAQAEGLRVISFRHEQNAGNAAAIAGFLTKKPGICLTVSAPGFLNGLTALANATTNCFPMILISGSSEREIVDLQQGDYGEMDQLAIAKPLCKAAFRVLHAADIGIGVARAIRAAVSGRPGGVYLDLPAKLFSQVIDADLGARSLVKVIDAAPAQLPAPAAIARALDVLKSAERPLIILGKGAAYAQADEAVRALVEESGIPYVPMSMAKGLLPDTHPLSAGAARSTALKDSDVVLLVGARLNWLLSHGKGKTWGEPGSKRFIQIDIEPREMDSNVEIVAPVVGDIGSCVEALLDGIRKDWKGAPSNWLETLRGKREANIAKMAPKLMKNSSPMCFHSALGALRTVIKERPDAILVNEGCNTLDLARGIIDMYQPRKRLDVGTWGVMGIGMGFAVAAAVETGKPVLAVEGDSAFGFSGMEVETICRYELPVCIVIFNNNGIYRGTDTDPTGRDPGTTVFVKNSRYDKMMEAFGGVGVNVTTPDELKRAVDEAMNSGKPTLINAEIDPAAGSEGGNIGSLNPQSTLKKK
notes: as for B1
For B4, in data set [4] (MeOXC3), the Michaelis constant (Km) was found to be 12 ± 3 mM, the kcat amounted to 1.6 ± 0.1 s⁻¹ and the kcat/Km was 130 M⁻¹ s⁻¹. In addition, in data set [5] (MeOXC3), the Km was found to be 0.17 ± 0.04 mM, the kcat stood at 1.6 ± 0.1 s⁻¹ and the kcat/Km stood at 9400 M⁻¹ s⁻¹.

B5: MeOXC (OXC, oxalyl-CoA decarboxylase) (Methylorubrum extorquens AM1; A415C/S568G) (protein)
chain: MTVQAQNIDAITAGAMPHEEPELTDGFHLVIDALKLNGIETIYNVPGIPITDLGRLAQAEGLRVISFRHEQNAGNAAAIAGFLTKKPGICLTVSAPGFLNGLTALANATTNCFPMILISGSSEREIVDLQQGDYEEMDQLAIAKPLCKAAFRVLHAADIGIGVARAIRAAVSGRPGGVYLDLPAKLFSQVIDADLGARSLVKVIDAAPAQLPAPAAIARALDVLKSAERPLIILGKGAAYAQADEAVRALVEESGIPYVPMSMAKGLLPDTHPLSAGAARSTALKDSDVVLLVGARLNWLLSHGKGKTWGEPGSKRFIQIDIEPREMDSNVEIVAPVVGDIGSCVEALLDGIRKDWKGAPSNWLETLRGKREANIAKMAPKLMKNSSPMCFHSALGALRTVIKERPDAILVNEGCNTLDLARGIIDMYQPRKRLDVGTWGVMGIGMGFAVAAAVETGKPVLAVEGDSAFGFSGMEVETICRYELPVCIVIFNNNGIYRGTDTDPTGRDPGTTVFVKNSRYDKMMEAFGGVGVNVTTPDELKRAVDEAMNSGKPTLINAEIDPAAGSEGGNIGSLNPQSTLKKK
notes: as for B1
On to B5, for which, in data set [4] (MeOXC2), the Michaelis constant (Km) was 12 ± 3 mM, the kcat was 0.57 ± 0.05 s⁻¹ and the kcat/Km turned out to be 50 M⁻¹ s⁻¹. In addition, in data set [5] (MeOXC2), the Km was 0.09 ± 0.02 mM, the kcat came out at 0.43 ± 0.02 s⁻¹ and the kcat/Km is 5100 M⁻¹ s⁻¹.

B6: AbfT (4-hydroxybutyrate CoA-transferase) (Clostridium aminobutyricum) (protein)
chain: MDWKKIYEDRTCTADEAVKSIKSGDRVLFAHCVAEPPVLVEAMVANAAAYKNVTVSHMVTLGKGEYSKPEYKENFTFEGWFTSPSTRGSIAEGHGQFVPVFFHEVPSLIRKDIFHVDVFMVMVSPPDHNGFCCVGVSSDYTMQAIKSAKIVLAEVNDQVPVVYGDTFVHVSEIDKFVETSHPLPEIGLPKIGEVEAAIGKHCASLIEDGSTLQLGIGAIPDAVLSQLKDKKHLGIHSEMISDGVVDLYEAGVIDCSQKSIDKGKMAITFLMGTKRLYDFAANNPKVELKPVDYINHPSVVAQCSKMVCINACLQVDFMGQIVSDSIGTKQFSGVGGQVDFVRGASMSIDGKGKAIIAMPSVAKKKDGSMISKIVPFIDHGAAVTTSRNDADYVVTEYGIAEMKGKSLQDRARALINIAHPDFKDELKAEFEKRFNAAF
notes: purified
On to B6, for which, in data set [6], the Km worked out at 12 ± 1 µM and the kcat was 0.40 ± 0.01 s^–1.
